Results reported in patent US20100297734, “Fusion Tag Comprising an Affinity Tag and an EF-Hand Motif Containing Polypeptide and Methods of Use Thereof” (University Health Network, published 2010).

Molecular target: p53(1-360) (Homo sapiens, UniProt P04637 P04637:1-360)
Assay: EMSA; 0.10 nM DNA, 12 uM p53(1-360), PBS, 25 C, 2 ug poly(dI-dC) competitor, 1 h; 6% gel in TBM
Conditions: tags: HiCaM tag (His6-calmodulin) removed by thrombin; expressed in E. coli BL21(DE3)Star; chain copies: 4 inferred; label: 32P
Protocol: Functional Assays of purified, untagged constructs—The excitation and emission spectra (excited at 488 nm) of eGFP were recorded from 300 to 700 nm at 25° C. in a Fluoromax-3 Spectrofluorometer. For p53(1-360), a ³²P-labelled restriction fragment harbouring an icosamer recognition sequence (5′-[…]-3′ (SEQ ID NO:6)) (0.10 nM) was incubated alone, with 50 ng/μL BSA or 12 μM p53(1-360) in PBS at 25° C. with 2 μg poly(dI-dC)˜poly(dl-dC) for 1 hour before separation in a 6% polyacrylamide gel in TBM buffer at 25 V/cm. The gel was then exposed to a phosphor screen for 1 hour and imaged in a Typhoon® Phosphorimager (GE Healthcare). Human p53(1-360) (7 μM) was also crosslinked with 0.125% glutaraldehyde at 25° C. for 12 min. and separated on SDS-PAGE, followed by Coomassie Blue staining (Poon et al. 2007).

Sequence of p53(1-360) (P04637 1-360, one chain of several): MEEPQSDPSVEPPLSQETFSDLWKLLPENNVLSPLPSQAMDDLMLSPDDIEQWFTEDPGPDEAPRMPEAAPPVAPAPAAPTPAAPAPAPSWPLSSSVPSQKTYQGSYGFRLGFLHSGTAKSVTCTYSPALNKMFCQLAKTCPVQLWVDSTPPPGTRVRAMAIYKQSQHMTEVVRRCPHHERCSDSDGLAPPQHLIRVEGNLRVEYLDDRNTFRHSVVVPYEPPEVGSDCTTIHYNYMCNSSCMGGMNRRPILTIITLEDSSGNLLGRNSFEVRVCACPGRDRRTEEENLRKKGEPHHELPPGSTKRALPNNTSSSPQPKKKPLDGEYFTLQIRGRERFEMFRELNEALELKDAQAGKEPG

B1: p53 icosamer recognition sequence (dsDNA)
DNA 1: AGGCATGTCTAGGCATGTCT
DNA 2: AGACATGCCTAGACATGCCT
binding result: binds
